{"source": "paper PMC4346626", "binders": {"B1": {"name": "Fab fragment of human monoclonal antibody 5J7 (Fab, V domains shown)", "VH": "QVQLVQSGAELRKPGSSVKVSCRASGGTFSSYTFNWVRQAPGQGLEWMGGFIPVFNTTNYAQTFQGRVTIAADKSTSTAYMELRSLRSEDTAIYYCARDKELLFSRAFDIWGQGTMVTVSS", "VL": "DIQMTQSPSSLSASVGDRVTITCRASQSISRYLNWYQREPGKAPKLLIYGASSLQRGVPSRFSGSGSGTDFTLTISSLQPEDFATYYCQQSQYIPYTFGQGTKVDIK"}}, "target": "envelope (E) protein of DENV3 reference strain CH53489, on the virus particle (dengue virus serotype 3, strain CH53489)"}
{"binder": "B1", "values": [{"measurement": "neut50, flow cytometry-based neutralization of DENV3 (CH53489) infection of Vero-81 cells", "value": 0.041, "unit": "µg/mL"}]}
